The record followed here is publication PMC7802950, “Characteristics and expression patterns of six α-galactosidases in cucumber (Cucumis sativus L.)” (PLoS ONE, 2021).

B1: CsAGA3 (Cucumis sativus) (protein)
chain: MTIKPAVRISDGKLIVKDRTILTGVPDNVIATSGSSSGPVEGVFLGAVFEEEQSRQVVSLGTLRDVRFMACFRFKLWWMAQKMGDKGKEIPLETQFLLLETKDGSHLESDDGNEENQIIYTVFLPLIEGSFRACLQGNGQDELELCLESGDVDTKASSFTHSLFIHAGTDPFDAISDAMKAVKLHLNTFRLRHEKKFPAIVDYFGWCTWDAFYHEVTQDGVEAGLESLTAGGVPPKFVIIDDGWQSVGGDPQEEKEEGDEKQPKQPPLLRLTAIRENSKFQKKEDPTEGIKNIVNIAKNKYGLKYVYVWHAITGYWGGVRTGVKDMEEYGSSMQYPKVSKGVFENEPIWKNDALALQGLGLMNPKNVYKFYNELHSYLASAGIDGVKVDAQSILETLGAGLGGRVELTRQYHQALDASVARNFPDNGIIACMSHHTDAVYCAKQTAVVRASDDFYPRDPVSHTIHIAAVAYNTVFLGEIMVPDWDMFHSLHSAAEYHASARAISGGPVYVSDAPGKHNFELLRKLVLPDGSVLRATLPGRPTRDCLFSDPARDGVSLLKIWNLNKFTGVIGIYNCQGAAWNSQERKNTFHDTNSDAITGYVKGRDVHAISKVAADPDWNGDCAFYRHLSGDLVTLPYNSALPVSLKVLEFDIFTISPIKVLAPGFSFAPIGLIDMYNSGGAIEGLKYEVKGGAKLVEVDGASEGIETASERVENRSSELVAIVHLEVKGCGRFGAYSSAKPRQCIVDSSVVEFGYDSESGLLTLGIDKLPEGDLKYHDVKIEL
notes: coding region in pAcHLT, baculovirus/Sf9 insect cells; 6xHis tag removed by thrombin
B2: CsAGA2 (Cucumis sativus) (protein)
chain: MTVTPKITVNDGNLVVHGKTILTGVPDNIVLTPGSGLGLVAGAFIGATASNSKSLHVFPVGVLEGTRFLCCFRFKLWWMTQRMGTSGRDIPFETQFLLMESQGNDGEDPDNSSTIYTVFLPLLEGQFRAALQGNEKNEMEICLESGDNTVETNQGLSLVYMHAGTNPFEVITQAVKAVEKHTQTFLHREKKKLPSFLDWFGWCTWDAFYTDVTAEGVVEGLQSLSDGGAPPKFLIIDDGWQQIEAKPKDADCVVQEGAQFASRLSGIKENHKFQKNGNNYDQVPGLKVVVDDAKKQHKVKFVYAWHALAGYWGGVKPASPGMEHYDSALAYPVQSPGMLGNQPDIVVDSLAVHGIGLVHPKKVFNFYNELHSYLASCGIDGVKVDVQNIIETLGAGHGGRVTLTRSYHQALEASIARNFSDNGCIACMCHNTDSLYSAKQTAVVRASDDYYPRDPASHTIHISSVAYNSLFLGEFMQPDWDMFHSLHPTAEYHGAARAIGGCAIYVSDKPGNHNFDLLKKLVLPDGSVLRAQLPGRPTRDSLFNDPARDGTSLLKIWNMNKCSGVVGVFNCQGAGWCRITKKTRIHDESPGTLTTSVRAADVDAISQVAGADWKGDTIVYAYRSGDLTRLPKGASVPVTLKVLEYDLFHISPLKDITSNISFAPIGLVDMFNIGGAVEQVDIQVVEPIPEFDGEVASELTCSLPDDRPPTATITMKARGCGRFGLYSSQRPLKCSVDKVGTDFVYDDVTGLVTFEIPIPTEEMYRWNIEIEV
notes: as for B1
B3: CsAGA1 (Cucumis sativus) (protein)
chain: MTVGAGITISDANLTVLGNRVLSDVHNNITLTAAPGGGVMNGAFIGVQSDQIGSRRVFPIGKLIGLRFLCAFRFKLWWMTQRMGCSGQEIPFETQFLVVETRDGSNIAGNGEEGDAVYTVFLPILEGDFRAVLQGNDNNELEICLESGDPSVDGFEGSHLVFVGAGSDPFETITYAVKSVEKHLQTFAHRERKKMPDILNWFGWCTWDAFYTDVTSDGVKKGLESFENGGIPPKFVIIDDGWQSVAKDAASTDCKADNTANFANRLTHIKENYKFQKDGKEGERIENPALGLQHIVSYMKEKHATKYVYVWHAITGYWGGVSSGVKEMEQYESKIAYPVASPGVESNEPCDALNSISKTGLGLVNPEKVFNFYNEQHSYLASAGVDGVKVDVQNILETLGAGHGGRVKLARKYHQALEASISRNFQDNGIISCMSHNTDGLYSSKRNAVIRASDDFWPRDPASHTIHIASVAYNSLFLGEFMQPDWDMFHSLHPMAEYHGAARAVGGCAIYVSDKPGQHDFNLLKKLVLHDGSILRAKLPGRPTKDCLFADPARDGKSLLKIWNMNDLSGVVGVFNCQGAGWCKVGKKNLIHDENPDTITGVIRAKDVSYLWKIAGESWTGDAVIFSHLAGEVVYLPQDASMPITLKSREFDVFTVVPVKELANDIKFAPIGLMKMFNSGGAVKEMNHQPGSSNVSLKVRGSGPFGAYSSSKPKRVAVDSEEVEFIYDEGGLITIDLKVPEKELYLWDIRIEL
notes: as for B1

Substrate in one data set: O=[N+]([O-])c1ccc(O[C@H]2O[C@H](CO)[C@H](O)[C@H](O)[C@H]2O)cc1
The data set can be described thus: purified protein. To be noted: pH and temperature of Km assay not stated.
With B1, the Km – broadly, the concentration of substrate that gives half-maximal velocity – came to 1.24 ± 0.17 mM.
For the protein B2, the Km turned out to be 2.21 ± 0.28 mM.
The same measure, in the same setting: to B3 belongs 1.81 ± 0.39 mM.

Substrate in another data set: OC[C@H]1O[C@H](OC[C@H]2O[C@H](OC[C@H]3O[C@H](O[C@]4(CO)O[C@H](CO)[C@@H](O)[C@@H]4O)[C@H](O)[C@@H](O)[C@@H]3O)[C@H](O)[C@@H](O)[C@H]2O)[C@H](O)[C@@H](O)[C@H]1O
The data set can be described thus: Lineweaver-Burk plot, hydrolysis. The format is biochemical, Cucumis sativus. To be noted: pH and temperature of Km assay not stated.
On to B1, for which the Km is 3.26 ± 0.76 mM.
Regarding B2, the Km was found to be 5.23 ± 1.23 mM.
For B3, the Km was determined as 3.76 ± 0.89 mM.

Substrate in the next data set: OC[C@H]1O[C@H](OC[C@H]2O[C@H](O[C@]3(CO)O[C@H](CO)[C@@H](O)[C@@H]3O)[C@H](O)[C@@H](O)[C@@H]2O)[C@H](O)[C@@H](O)[C@H]1O
The data set can be described thus: Lineweaver-Burk plot, hydrolysis. To be noted: pH and temperature of Km assay not stated. In kind it is biochemical, Cucumis sativus.
Take B1: the Km came out at 22.47 ± 1.87 mM.
Same read-out and setting: under B2 stands 30.4 ± 2.85 mM.
On the same count and under the same terms, under B3 stands 2.08 ± 0.51 mM.
